Publication PMC3983144 (Bioconjugate chemistry, 2014)
Square brackets hold non-standard residues; d marks the D form. Nle = CCCC[C@H](N)C(=O)O

Target: melanocortin 1 receptor (mouse (endogenous in B16F10), UniProt Q01727 1-315)
Experiment: radioligand binding

Chain of melanocortin 1 receptor (Q01727 whole entry, one chain of several): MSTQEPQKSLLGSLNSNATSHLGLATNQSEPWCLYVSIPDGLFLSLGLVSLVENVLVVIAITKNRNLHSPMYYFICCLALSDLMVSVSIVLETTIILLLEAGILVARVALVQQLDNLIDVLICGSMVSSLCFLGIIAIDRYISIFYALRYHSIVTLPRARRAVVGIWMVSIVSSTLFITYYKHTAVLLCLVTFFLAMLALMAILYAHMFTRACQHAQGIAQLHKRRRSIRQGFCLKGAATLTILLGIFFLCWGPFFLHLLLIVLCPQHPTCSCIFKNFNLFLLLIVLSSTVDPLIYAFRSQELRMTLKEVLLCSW

B1: Ac-Cys-Nle-Asp-His-D-Phe-Arg-Trp-Gly-Lys-NH2 (peptide)
chain: Ac-C[Nle]DH[dF]RWGK-NH2
SMILES: CCCC[C@H](NC(=O)[C@H](CS)NC(C)=O)C(=O)N[C@@H](CC(=O)O)C(=O)N[C@@H](Cc1c[nH]cn1)C(=O)N[C@H](Cc1ccccc1)C(=O)N[C@@H](CCCNC(=N)N)C(=O)N[C@@H](Cc1c[nH]c2ccccc12)C(=O)NCC(=O)N[C@@H](CCCCN)C(N)=O
  IC50: 2.19 ± 0.54 nM
